One data set in a line: Figure 17. The text has this:
Table printed on a drawing sheet, Figure 17
AK10 and Dextran 40 kDa are controls.
First reader's note: The Sample column holds peptide sequences with SEQ ID NOs as well as non-peptide controls; on the sheet the PBS/CM sub-heads stand in one merged head cell, split here into a second head row.

A short description of the next data set: Figure 15. The text has this: Table printed on a drawing sheet, Figure 15

Experimental findings from patent publication US20210284688A1, “MUCUS-PENETRATING PEPTIDES AND SCREENING ASSAY” (BOARD OF REGENTS, THE UNIVERSITY OF TEXAS SYSTEM, priority 2016, published 2021) are described below.

Structures can show the parent of a compound that is named as a salt. Where no end group is shown, it is not given here.

Take `O=C1OC2(c3ccc(O)cc3Oc3cc(O)ccc32)c2ccccc21` [Fluorescein Na Salt]: the “De/10^-5 cm^2 s^-1 | CM” value in the data set “Figure 17” was 1.05 10^-5 cm^2 s^-1.

With “M13 ISLPSPTGGGS (SEQ ID NO: 29) (also: displayed on M13 phage)”, the “De/10^-9 cm^2 s^-1 | CM” value in “Figure 15” is listed as 4.00 10^-9 cm^2 s^-1.

Consider “M13 SSQLSRPGGGS (SEQ ID NO: 30) (also: displayed on M13 phage)”, for which, in the data set “Figure 15”, the “De/10^-9 cm^2 s^-1 | CM” value is 1.72 10^-9 cm^2 s^-1.

For “M13 YNSPTHHGGGS (SEQ ID NO: 31) (also: displayed on M13 phage)”, the “De/10^-9 cm^2 s^-1 | CM” value in the data set “Figure 15” is 1.45 10^-9 cm^2 s^-1.
